# Results: a protein production outcome set (Wang et al. 2014)
# Test: label from the status in PepcDB records
row,Sequence,protein production
1,MEKSKIINYWDKRAESFSKNKLAELESTHAQKWIEEINNINPIQPGMKILDIGTGAGFLAILCGNLGSDVTGIDLSPEMIQSAKQNAESHHQDIHFQVMDAESLQFNDETFDMVISRNVTWLLPNTKAAYQEWLRVLKPNGKLINIDANYGNDSFTDYKSLNTEHAHHTLGKDMLAESEAIKQNIPINHQPRPQTDMDILKSLGFDHIHLDTEIYLRMYSEQDEFYNPTPIFLISVTKSY,failed
2,LSRVGSAEWNLLTDEATWSGELYQILGRDPAAPPLTLDELPSFVHDEDRPRLTAMVTDCLIDAKPIDGEFRIVRPDGGVRTVHMMGEPVLDAHGSTASMWAVLRDVSE,not failed
3,MKNRALLLIDFQKGIESPTQQLYRLPAVLDKVNQRIAVYRQHHAPIIFVQHEETELPFGSDSWQLFEKLDTQPTDFFIRKTHANAFYQTNLNDLLTEQAVQTLEIAGVQTEFCVDTTIRMAHGLGYTCLMTPKTTSTLDNGHLTAAQIIQHHEAIWAGRFLTFLSL,not failed
4,MRSTKTNAMEAIMKKFMGIATAAVFGLGIFTTSAKAETIVTTDVLNVRENPTTESKVVGKLLDGYKVNVLHTENGWSKVQLNSGKEAFISADYTKDTYYVTANVLNVRAGANTDSEILGKLKKDDVIETTHQVQNDWIQFEYNGKTAYVHVPYLTGKAPVKVQPVAKVEKTTTVQDTAKVREAAKAQEVAETQAKAKAVEATKAREAAEAQAEVKAQEAAKAREAAKAQEAAKAQADAEAQAEVKAQEAAKAREAAKAQADAEAQAAAKAQEAAKAREAAKAQEAAEAREAAKAQEAREAAKAQEAAKAQKSATQQPVAKETETSTPSSSRELRVVATAYTADPLENGYKAGDQVKSALGHNLTANPNMKLIAVDPSVIPLGSKVWVEGYGVAIAGDTGGAIKGNKIDVLMPDKGSSSSWGRKTVTVKVLNLEHHHHHH,not failed
5,MGHHHHHHSHMPQFSPSYSFPVQIYYEDTDFSGVVYHPNFLKYFERAREHVIGAEQLRNLWQQQQLGFAVYRSDMLCHEGVEFADIIDIRTKFYFESKYRTVWHQEIWRPNGKKPAVTATIEMVCMNQARQLAPMPAELITQLSLGM,not failed
6,EHAKQASSYIPLDRLSISYCRSSGPGGQNVNKVNSKAEVRFHLASADWIEEPVRQKIALTHKNKINKAGELVLTSESSRYQFRNLAECLQKIRDMIAEA,not failed
7,MQTVQALLTAAKVDGAKSPYDTIHIKVLYPAKNTDSNLEKSWGMLPIDTAQAPLPVMIFFNGFNCDAQKYQWLGIELAQTGLVVVMFNWVGESLPGLVSFTPGFEIEKRKREFYGTAPTASALPAILTTLAQLQREGILAGTLDLEKIILGGHSEGGRVAMENANPNFFPQVVASFAYGSHTAGAVMLGYKPNTILPLPDTLPRLVIGGTHDGVIASSSSHFGLNTKDATTPVIRTFQEAIMGGHENSYLLILRGANHFSIVDIVDSTLALPFKDIPATQPQEHFRLLLATIIHLFIDAHVRHQPEAFQKLEQL,failed
8,MKRFPFRPRLLVTVSLVALLLPGCASKPNNLKPSMPEPRLGVASENPGKPKKGKQASSGSQYDTLWERMFSLYALPQVEHRSVEREVSWFINHPDYLKRAQKRAEPFLYTIVRQLEKQKMPGELALLPIVESAFQPHAVSPARAAGIWQFIPETGRRYGLKRSRSYDGRRDVYASTRAAIKYLKKLHNDFNGDWLLAIAAYNCGEGAVAKAIQRNEARNLPTDFWSLDLPDETKAYVPRLLAVSKVFANADKYAIDLHYIPNEAIFKPVKVSSQLDLALAADAADMSLERMLELNPGFKHPHADIEGSYRLFVPADKSRKFKKELARLAMSGQFDSHPPADEGDGSTGFGHRGSLETATEDDAAPGRERSVRKPVVSGYGAEYAVPSRSAERGGPAKDSSRSERWQSVETPSRGGSAVVAHLRDGSRLRDVWGREHGQEDKPLKGNRRPDERLGLSSKANPNRKEGGRKVAGGSALSREEALREERGDRGKEKHAISIPFDERHGGGIKASQSIRHTVKPGETLFAISQRFGVSVADLRKWNGVKENKLEAGRNIRVSAGKD,failed
9,MLHELFSVYLKMLVLYSPFFVLSCFISLTRGHSSKERKQLAWKVAFAALVASVLLYLFGRAIFGIFGITADAFRIGAGSVLFISALGMAQGKPAVQADNVQQDVTIVPLTIPLTVGPGTIGALLVMGVSQPHWDEKLLAIVSIALASFTVGLVLYLSHGIERLLGDQGLQIVSRLMGLFVCALAAQIIFTGIRGYLLP,failed
